Measured values as given in paper doi:10.1101/2020.05.08.083964 (bioRxiv, 2020).

Experiments:
[1] = biological target: T1, extracellular domain of the SARS-CoV-2 S protein (S-ECD) (SARS-CoV-2, Wuhan-Hu-1); assay: BLI
[2] = biological target: S-ECD of SARS-CoV-2 (cryo-EM sample) (SARS-CoV-2, Wuhan-Hu-1); assay: cryo-EM structure
[3] = biological target: T1, extracellular domain of the SARS-CoV-2 …; assay: cell-based or functional assay

B1: 4A8 (antibody, V domains shown)
VH: EVQLVESGAEVKKPGASVKVSCKVSGYTLTELSMHWVRQAPGKGLEWMGGFDPEDGETMYAQKFQGRVTMTEDTSTDTAYMELSSLRSEDTAVYYCATSTAVAGTPDLFDYYYGMDVWGQGTTVTVSS
VL: EIVMTQSPLSSPVTLGQPASISCRSSQSLVHSDGNTYLSWLQQRPGQPPRLLIYKISNRFSGVPDRFSGSGAGTDFTLKISRVEAEDVGVYYCTQATQFPYTFGQGTKVDIK
- Kd [1]: < 2.14 nM
- stoichiometry N [2]: 3
- neutralization of live (authentic) SARS-CoV-2 in Vero-E6 cells, EC50 [3]: 0.607 µg/mL
